For one data set, the system named is rat HSCs. To be noted: blocking integrins in rat HSCs; cited from earlier work. From the text:
While the mechanisms underlying this anti-apoptotic property of CVI remain to be fully established, our studies point to a potent repression of BAX by soluble CVI. […] This growth factor withdrawal-induced p53 and Bax upregulation can be mitigated by ECM components through integrin-mediated adhesion and spreading as shown for rat HSCs.

The subject of another data set is CFSC. The data set is described as follows: Fibrosis-associated gene expression, quantitative real-time PCR. In kind it is cell-based, rat. The conditions noted are these: serum-starved CFSC; 30 mg/l CVI plus 133 mg/l monomeric alpha chain; 24 h; n = 4. The procedure:
30 mg/l CVI, 133 mg/l of the monomeric alpha chains of CVI and/or TGF-β (2 ng/ml) were added after 24 h. […] Reverse transcribed complementary DNA templates were amplified by quantitative real-time polymerase chain reaction (PCR; Roche Diagnostics, Mannheim, Germany) using fluorogenic probes labeled with 6-carboxy-fluorescein and 6-carboxy-tetramethylrhodamin (Sigma- Genosys, Steinheim, Germany) and primer pairs (Invitrogen, Karlsruhe, Germany) specific for fibrosis-associated genes (for sequences see S2 Table). Gene expressions were normalized to glyceraldehyde phosphate dehydrogenase (GAPDH).
A general note: Real-time PCR tracks product formation cycle by cycle.

Data set [1] concerns CVI-induced proliferation of HSC. The data set is described as follows: Inhibition of CVI-induced proliferation by alpha single chains, [3H]-thymidine incorporation. It counts as cell-based, rat. The conditions noted are these: 40 mg/l single chain, then 30 mg/l CVI; 24 h; primary rHSCs, n = three; Fig 4A legend: CFSC, n = 4. The procedure:
(§1) 5x10^3CFSC in 100 μl 10% FBS were seeded into a 96-well flat-bottom tissue culture plate (Nunc, Roskilde, Denmark). After 24 hours, medium was completely removed, and cells were rinsed with 200 μl phosphate-buffered saline and 100 μl standard medium containing only 0.25% FBS were added. Cells were cultured for additional 24 h prior to treatment. Synchronized microcultures in 96-well plates were treated for 2 hours in reduction medium. When appropriate, the reduction medium was supplemented with 40 mg/l of α1(VI), α2(VI) or α3(VI). Then, 30 mg/l CVI or CI as control were added and cells were incubated for 24 h after which [^3H]-thymidine was added for additional 24 h. To assess effects of α3(VI)-derived 30-mer peptides on CVI-induced proliferation of CFSC, the reduction medium was supplemented with a 100-fold molar excess of the respective 30-mer peptides compared to CVI. [^3H]-thymidine incorporation was measured as described before. Cells treated with 150 mmol/l HAc or grown in 10% FBS served as negative and positive controls, respectively. During the last 4 hours of treatment, all cultures received 18.5 kBq [^3H]-thymidine (Amersham, Freiburg, Germany). Cells were fixed with 10% trichloroacetic acid and lysed by 200 mmol/l NaOH. After neutralization with 800 mmol/l HCl, lysates were collected to a glassfibre mat and the de-novo DNA synthesis was assessed by liquid scintillation (LKB Wallac, Bromma, Sweden) and the radioactive decay was counted (for) a minute (cpm).
In general terms: Dividing cells build labelled thymidine or BrdU into new DNA.

Data set [2] deals with 10% FBS-induced proliferation of HSC. Briefly: Inhibition of 10% FBS-induced proliferation by alpha single chains, [3H]-thymidine incorporation. It counts as cell-based, rat. To be noted: cells grown in 10% FBS, Fig 4A. As to the method: as §1
A short description of data set [3]: Live/Dead Viability/Cytotoxicity Kit (Calcein AM staining). In kind it is cell-based. To be noted: 24 h with individual chains; S4 Fig; three independent experiments. As to the method: Supplementary file pone.0254557.s004.pdf: S4 Fig Single CVI chains are not toxic To exclude that the effects of the alpha chains on proliferation or gene expression are due to cytotoxic effects, cells were treated 24 h with individual chains and cell viability was determined using the two-colour fluorescence Live/Dead™ Viability/Cytotoxicity Kit (Invitrogen™). Methanol (10% in medium) was used a positive control to induce cell toxicity. Medium was used as a non-toxic negative control. Since acetic acid (HAc) is used as solvent of the chains, cells treated with 0.15 M HAc were included as an additional control group. Shown are Mean ± SD of three independent experiments. Statistics were calculated by one-way ANOVA analysis and Tukey’s multiple comparisons test. Differences p<0.05 were considered significant. (PDF) Click here for additional data file.

Here are results for three molecules from article PMC8412337, “Alpha-single chains of collagen type VI inhibit the fibrogenic effects of triple helical collagen VI in hepatic stellate cells” (PLoS ONE, 2021).

Regarding Gly-Arg-Gly-Asp-Ser [GRGDS], in the data set on rat HSCs, the “increase in the Bax/Bcl-2 ratio” value is reported as 3 fold.

Consider “α3(VI): monomeric alpha 3 single chain of collagen VI isolated from human placentas”, for which, in the data set on CFSC, the “effect on CVI-induced expression of αSMA, CI and TGF-β” value was “largely blocked”. Besides, the “inhibition of DNA synthesis in the presence of CVI” value in data set [1] was 70%. The “effect on 10% FBS-induced proliferation” value in data set [2] is on record as “did not block any FBS-induced proliferation”. The “cytotoxic effects (Calcein AM staining, cell viability)” value in data set [3] is recorded as “not secondary to cytotoxic effects”.

B1: α2(VI): monomeric alpha 2 single chain of collagen VI isolated from human placentas (protein, UniProt P12110 21-1019, looked up)
Collagen alpha-2(VI) chain: QQQEVISPDTTERNNNCPEKTDCPIHVYFVLDTSESVTMQSPTDILLFHMKQFVPQFISQLQNEFYLDQVALSWRYGGLHFSDQVEVFSPPGSDRASFIKNLQGISSFRRGTFTDCALANMTEQIRQDRSKGTVHFAVVITDGHVTGSPCGGIKLQAERAREEGIRLFAVAPNQNLKEQGLRDIASTPHELYRNDYATMLPDSTEIDQDTINRIIKVMKHEAYGECYKVSCLEIPGPSGPKGYRGQKGAKGNMGEPGEPGQKGRQGDPGIEGPIGFPGPKGVPGFKGEKGEFGADGRKGAPGLAGKNGTDGQKGKLGRIGPPGCKGDPGNRGPDGYPGEAGSPGERGDQGGKGDPGRPGRRGPPGEIGAKGSKGYQGNSGAPGSPGVKGAKGGPGPRGPKGEPGRRGDPGTKGSPGSDGPKGEKGDPGPEGPRGLAGEVGNKGAKGDRGLPGPRGPQGALGEPGKQGSRGDPGDAGPRGDSGQPGPKGDPGRPGFSYPGPRGAPGEKGEPGPRGPEGGRGDFGLKGEPGRKGEKGEPADPGPPGEPGPRGPRGVPGPEGEPGPPGDPGLTECDVMTYVRETCGCCDCEKRCGALDVVFVIDSSESIGYTNFTLEKNFVINVVNRLGAIAKDPKSETGTRVGVVQYSHEGTFEAIQLDDERIDSLSSFKEAVKNLEWIAGGTWTPSALKFAYDRLIKESRRQKTRVFAVVITDGRHDPRDDDLNLRALCDRDVTVTAIGIGDMFHEKHESENLYSIACDKPQQVRNMTLFSDLVAEKFIDDMEDVLCPDPQIVCPDLPCQTELSVAQCTQRPVDIVFLLDGSERLGEQNFHKARRFVEQVARRLTLARRDDDPLNARVALLQFGGPGEQQVAFPLSHNLTAIHEALETTQYLNSFSHVGAGVVHAINAIVRSPRGGARRHAELSFVFLTDGVTGNDSLHESAHSMRKQNVVPTVLALGSDVDMDVLTTLSLGDRAAVFHEKDYDSLAQPGFFDRFIRWIC
As for B1, in the data set with CFSC, the “effect on CVI-induced expression of αSMA, CI and TGF-β” value is on record as “largely blocked”. For the same molecule, the “inhibition of DNA synthesis in the presence of CVI” value in data set [1] is 60%. Besides, the “effect on 10% FBS-induced proliferation” value in data set [2] is listed as “also inhibited 10% FBS-induced proliferation”. Also, the “cytotoxic effects (Calcein AM staining, cell viability)” value in data set [3] is recorded as “not secondary to cytotoxic effects”.
